Earlier results as cited in article PMC5289555.

Key:
[1] = molecular target: Hsp90 zipped construct (Saccharomyces cerevisiae) (UniProt P02829)
[2] = molecular target: Hsp90 (Saccharomyces cerevisiae) (UniProt P02829)

| Kd [1] [nM] | Kd [2] [nM] | Substance |
| --- | --- | --- |
| < 0.001 |  | Hsp90 zipped construct (from UniProt P02829) |
|  | 60 | Hsp90 (from UniProt P02829) |
